Experimental data published in US20260022343A1 (AFFYXELL THERAPEUTICS, published 2026).
Where “and” joins values, the source holds several entries; their conditions need not be identical. Equal entries are not always repeated.

Key:
[1] = target: T1, human TNFR2 (human, UniProt P20333 23-257, limits assumed); test: selection of TNFR2-binding stefin A variants; method not described
T1 sequence (looked up): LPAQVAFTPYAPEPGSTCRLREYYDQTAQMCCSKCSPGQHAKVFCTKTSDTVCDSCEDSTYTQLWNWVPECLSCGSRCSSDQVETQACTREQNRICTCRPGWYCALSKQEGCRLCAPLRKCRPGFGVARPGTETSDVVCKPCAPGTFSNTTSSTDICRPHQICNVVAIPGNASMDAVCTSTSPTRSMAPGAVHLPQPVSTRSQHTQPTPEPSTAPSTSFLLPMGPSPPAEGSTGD

[2] = target: T2, recombinant human CD40L (R&D Systems, 6420-CL-025/CF) (human, UniProt P29965 108-261, limits assumed); test: binding ELISA (bELISA): plate coated with recombinant human CD40L, 1/3 serial dilutions of concentrated culture fluid, TMB read-out; first-named of the two gene-introduced cell lines (promoter not stated)
T2 construct: Bought protein coated on the ELISA plate
T2 sequence (looked up): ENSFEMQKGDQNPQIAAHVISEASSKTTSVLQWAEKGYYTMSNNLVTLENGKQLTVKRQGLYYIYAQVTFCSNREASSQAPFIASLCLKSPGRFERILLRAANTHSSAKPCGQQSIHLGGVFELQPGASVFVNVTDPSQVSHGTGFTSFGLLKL
Experimental: (§1) Each cell line was inoculated into a T175 flask at a cell density of 4.0×10³ cells/cm² using a culture medium. After culture at 37° C. and 5% CO₂ for 18 to 24 hours, the culture medium was thoroughly replaced with a fresh culture medium every 2 days, followed by culture. After culture for 3 days, the cells were harvested, and 7.0×10⁶ cells were inoculated into a T175 flask, followed by culture at 37° C. and 5% CO₂ for 18 to 24 hours. The culture medium was thoroughly removed, and the remaining medium was completely removed through washing with 10 mL of MEM alpha. 30 mL of an MEM alpha medium was added to a T175 flask, followed by culture for 48 hours. After 48 hours, all of the cell culture fluid was harvested and then centrifuged to remove residual cells and impurities. The cell culture fluid was transferred to a Vivaspin 20 and centrifuged, the culture fluid was concentrated, and the stefin A protein variant was quantified through sandwich ELISA (LSBio, LS-F4620). […] The unbound stefin A protein variant was removed through washing, after which the extent of binding between the stefin A protein variant and CD40L was detected based on a difference in absorbance resulting from reaction with a TMB substrate.

[3] = target: T3, human Mega CD40L recombinant protein (Enzo Lifesciences) (human, UniProt P29965 116-261); test: cell-based or functional assay
T3 sequence (looked up): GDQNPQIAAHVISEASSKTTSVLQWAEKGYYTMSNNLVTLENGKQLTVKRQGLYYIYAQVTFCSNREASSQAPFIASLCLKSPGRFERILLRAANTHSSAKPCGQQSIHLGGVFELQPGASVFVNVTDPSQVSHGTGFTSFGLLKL

[4] = target: T2, recombinant human CD40L (R&D Systems, …); test: binding ELISA (bELISA): plate coated with recombinant human CD40L, 1/3 serial dilutions of concentrated culture fluid, TMB read-out; second-named of the two gene-introduced cell lines (promoter not stated)
Experimental: as §1

B1: TNFR2-binding stefin A variant CLONE 026 (designed binder)
chain: MIPRGLSEAKPATPEIQEIVDKVKPQLEEKTGETYGKLEAVQYKTQVLALEIPSAIIYSTNYYIKVRAGDNKYMHLKVFNGPYFWGDQEHWADRVLTGYQVDKNKDDELTGFAAAEQKLISEEDLAAHHHHHH
notes: also called clone 26
binding result [1]: binds

B2: TNFR2-binding stefin A variant CLONE 100 (designed binder)
chain: MIPRGLSEAKPATPEIQEIVDKVKPQLEEKTGETYGKLEAVQYKTQVLAQSWDKHYQLRESTNYYIKVRAGDNKYMHLKVFNGPEVPHHAHGVADRVLTGYQVDKNKDDELTGFAAAEQKLISEEDLAAHHHHHH
binding result [1]: binds

B3: TNFR2-binding stefin A variant CLONE 001 (designed binder)
chain: MIPGGLSEAKPATPEIQEIVDKVKPQLEEKTGETYGKLEAVQYKTQVVGQDQWGNYAGTNYYIKVRAGDNKYMHLKVFKSLPDIPHNHWHEDLVLTGYQVDKNKDDELTGFAAAEQKLISEEDLAAHHHHHH
notes: also called clone 1
binding result [1]: binds

B4: TNFR2-binding stefin A variant CLONE 007 (designed binder)
chain: MIPGGLSEAKPATPEIQEIVDKVKPQLEEKTGETYGKLEAVQYKTQVVGLDIWGNNAGTNYYIKVRAGDNKYMHLKVFKSLADTARTEEAEDLVLTGYQVDKNKDDELTGFAAAEQKLISEEDLAAHHHHHH
notes: also called clone 7
binding result [1]: binds

B5: TNFR2-binding stefin A variant CLONE 009 (designed binder)
chain: MIPGGLSEAKPATPEIQEIVDKVKPQLEEKTGETYGKLEAVQYKTQVVRLFHIWRWWGTNYYIKVRAGDNKYMHLKVFKSLIHIYTDSIQEDLVLTGYQVDKNKDDELTGFAAAEQKLISEEDLAAHHHHHH
notes: also called clone 9
binding result [1]: binds

B6: TNFR2-binding stefin A variant CLONE 012 (designed binder)
chain: MIPGGLSEAKPATPEIQEIVDKVKPQLEEKTGETYGKLEAVQYKTQVVYWGVQGALDGTNYYIKVRAGDNKYMHLKVFKSLNWNHEFDLVEDLVLTGYQVDKNKDDELTGFAAAEQKLISEEDLAAHHHHHH
notes: also called clone 12
binding result [1]: binds

B7: TNFR2-binding stefin A variant CLONE 044 (designed binder)
chain: MIPGGLSEAKPATPEIQEIVDKVKPQLEEKTGETYGKLEAVQYKTQVVLFPEAVYWVGTNYYIKVRAGDNKYMHLKVFKSLIWNDNAAQHEDLVLTGYQVDKNKDDELTGFAAAEQKLISEEDLAAHHHHHH
notes: also called clone 44
binding result [1]: binds

B8: anti-CD40L stefin A protein variant XT75 (SEQ ID NO: 105), secreted by gene-introduced MSC (eMSC) (designed binder)
chain: IPGGLSEAKPATPEIQEIVDKVKPQLEEKTGETYGKLEAVQYKTQVVHYYVHYNDQGTNYYIKVRAGDNKYMHLKVFKSLWGENLFAKWEDLVLTGYQVDKNKDDELTGFAEAAAKEAAAKEAAAKEAAAKEAAAKEAAAKMIPGGLSEAKPATPEIQEIVDKVKPQLEEKTGETYGKLEAVQYKTQVVHYYVHYNDQGTNYYIKVRAGDNKYMHLKVFKSLWGENLFAKWEDLVLTGYQVDKNKDDELTGFAEAAAKEAAAKEAAAKEAAAKEAAAKEAAAKMIPGGLSEAKPATPEIQEIVDKVKPQLEEKTGETYGKLEAVQYKTQVVHYYVHYNDQGTNYYIKVRAGDNKYMHLKVFKSLWGENLFAKWEDLVLTGYQVDKNKDDELTGFAEAAAKEAAAKEAAAKEAAAKEAAAKEAAAKMIPRGLSEAKPATPEIQEIVDKVKPQLEEKTGETYGKLEAVQYKTQVLANFFQRRWPGSTNYYIKVRAGDNKYMHLKVFNGPWKFRNTDRGADRVLTGYQVDKNKDDELTGF
notes: By their DNA these vectors appear to encode a further C-terminal Myc/His tag and a T2A remnant; also called AFX01-230 XT75(C); eMSC (XT75, w/EF1A)
EC50 [2]: 3.9 pM
IC50 for hMega CD40L, HEK-Blue CD40L reporter cell assay (absorbance of HEK-Blue solution) [3]: 303 pM and 400 pM
EC50 [4]: 5.3 pM
